Test results: publication PMC8355051 (Nature biotechnology, 2021)

Columns and labels:
[1] = biological target: Spike-RBD-25aa-SmBiT-12xHisTag (SARS-CoV-2, UniProt P0DTC2); assay: split reporter
[2] = biological target: Spike-RBD-15aa-LgBiT-12xHisTag (SARS-CoV-2, UniProt P0DTC2); assay: split reporter
[3] = biological target: Biotinylated Spike RBD protein (SARS-CoV-2, UniProt P0DTC2, biotin); assay: BLI

Measured: binding result

B1: C105 IgG (antibody, V domains shown)
VH: QVQLVESGGGLIQPGGSLRLSCAASGFTVSSNYMSWVRQAPGKGLEWVSVIYSGGSTYYADSVKGRFTISRDNSKNTLYLQMNSLRAEDTAVYYCARGEGWELPYDYWGQGTLVTVSS
VL: QSALTQPPSASGSPGQSVTISCTGTSSDVGGYKYVSWYQQHPGKAPKLMIYEVSKRPSGVPDRFSGSKSGNTASLTVSGLQAEDEADYYCSSYEGSNNFVVFGGGTKLTVL
binds: all assays above
